{"source": "the DeepSol protein solubility set", "data": [{"assay": "soluble on expression in E. coli; label from the status in PepcDB or PDB records", "values": [{"sequence": "MSQATQQLDETRLALADALQAGNWDAIGELDQVCQVKIDQAMHDDERDEQALRVSLEQLLSLYNDMLSACRQQREAIGAELTGLQRASKGAKVYQMFG", "soluble on expression in E. coli": "not soluble"}, {"sequence": "QTTKRIRDQEKATALQTAEMVAEAPMTAAALESGKKQKELQSYTKRVQKITGTEFVVVMDMNGIRKTHPDPSKIGKKFRGGDESEVLKGHVHISTASGTLGKSQRAFVPVYAENGKQVGAVAVGITVNEIDEVISHSLRP", "soluble on expression in E. coli": "not soluble"}, {"sequence": "MGSDKIHHHHHHMRTVLYDEHAKLNAKFTEFNGWDMPLYYRSIIEEHMAVRKHVGIFDVSHMGDVTVSGKDASAFLDHMFPTKVSNLKNGECVYTAFLNDSGLMIDDTIVYRMGEDSYFFVPNAGTTEKIYRWVSDHSAGYSVKIENVSNRISSIALQGPESEEVLNELGFSYPGYFKFQYVSGKYMNAITGKDQIIISGTGYTGEKGVEFIIPNEHAVELWKKLLEAINKRNGLPAGLGARDTLRMEKGMLLSGHDFNEDRDPYEASVSFIVNNDEDFVGKKNLEIRRRSDHEIFRGFVLSDGIPRNGNPIKAGGKRVGTVTSGTISPVLNKGIALGYIDKAYSKENTEVMIEIRSVDHKAVVTKPRIVK", "soluble on expression in E. coli": "not soluble"}, {"sequence": "MSLVEKQSALESKARSWLIERGVEIDDIAELVLFLQQKYHPGLELDICRQNVEHVLRKREVQNAVLTGIQLDVMAEKGELVQPLQNIISADEGLYGVDEILALSIVNVYGSIGFTNYGYIDKVKPGILAKLNEHDGIAVHTFLDDIVGAIAAAAASRLAHSYHDDIVNEGGSHHHHHH", "soluble on expression in E. coli": "soluble"}, {"sequence": "GSMEQFELFSIDKFKCNSEAKYYLNIIEGEWHPQDLNDSPLKFILSTSDDSDYICKYINTEHKQLTLYNKNNSSIVIEIFIPNDNKILLTIMNTEALGTSPRMTFIKHK", "soluble on expression in E. coli": "soluble"}, {"sequence": "MGGSHHHHHHGMASWPPPRCPLGVPLVLDGCGCCRVCARRLGEPCDQLHVCDASQGLVCQPGAGPGGRGALCLLAEDDSSCEVNGRLYREGETFQPHCSIRCRCEDGGFTCVPLCSEDVRLPSWDCPHPRRVEVLGKCCPEWVCGQGGGLGTQPLPAQGPQFSGLVSSLPPGVPCPEWSTAWGPCSTTCGLGMATRVSNQNRFCRLETQRRLCLSRPCPPSRGRSPQNSAF", "soluble on expression in E. coli": "not soluble"}, {"sequence": "MAASASGKSKTSAGANRRRNRPSPRQRLLDSATNLFTTEGIRVIGIDRILREADVAKASLYSLFGSKDALVIAYLENLDQLWREAWRERTVGMKDPEDKIIAFFDQCIEEEPEKDFRGSHFQNAASEYPRPETDSEKGIVAAVLEHREWCHKTLTDLLTEKNGYPGTTQANQLLVFLDGGLAGSRLVHNISPLETARDLARQLLSAPPADYSI", "soluble on expression in E. coli": "soluble"}, {"sequence": "MARRQTSSNGAGETRENLLRLAARIFSAQGYSGTTMRSIAQQAGIETASIYYHFPSKEDLVDEVMEIGATAIIQHMTERIEALGDGATAEERFRAAVLGQMAGMVKHGEYTLASSSLIEQLPEKVRERQSKRRESYQKLWAGLLEDLRAEGRLRSDVDLHLARMFILGSVQSIRYWFNPRKGSLEKVAAQLCDLFFEGVGQRG", "soluble on expression in E. coli": "soluble"}, {"sequence": "MRSYRAQGPLPGFYHYYPGVPAVVGVRVEERVNFCPAVWNTGLSADPPLFGVSISPKRFTHGLLLKARRFSASFHPFGQKDLVHWLGSHSGREVDKGQAPHFLGHTGVPILEGAYAAYELELLEVHTFGDHDLFVGRVVAVWEEEGLLDEKGRPKPGLALLYYGKGLYGRPAEETFAP", "soluble on expression in E. coli": "soluble"}, {"sequence": "METPQTGYQVKTYNVPVKRYCQTLDLRDSPELIAEYRKRHSQAEVWPEILAGIREVGILEMEIYILGTRLFMIVETPVDFDWDTAMARLNTLPRQQEWEEYMSILQQAAPGMSSAEKWIPMERMFHLYNT", "soluble on expression in E. coli": "not soluble"}, {"sequence": "MSLSTDTAPAQTMHAGRLIARRLKASGIDTVFTLSGGHLFSIYDGCREEGIRLIDTRHEQTAAFAAEGWSKVTRVPGVAALTAGPGITNGMSAMAAAQQNQSPLVVLGGRAPALRWGMGSLQEIDHVPFVAPVARFAATAQSAENAGLLVDQALQAAVSAPSGVAFVDFPMDHAFSMSSDNGRPGALTELPAGPTPAGDALDRAAGLLSTAQRPVIMAGTNVWWGHAEAALLRLVEERHIPVLMNGMARGVVPADHRLAFSRARSKALGEADVALIVGVPMDFRLGFGGVFGSTTQLIVADRVEPAREHPRPVAAGLYGDLTATLSALAGSGGTDHQGWIEELATAETMARDLEKAELVDDRIPLHPMRVYAELAALLERDALVVIDAGDFGSYAGRMIDSYLPGCWLDSGPFGCLGSGPGYALAAKLARPQRQVVLLQGDGAFGFSGMEWDTLVRHNVAVVSVIGNNGIWGLEKHPMEALYGYSVVAELRPGTRYDEVVRALGGHGELVSVPAELRPALERAFASGLPAVVNVLTDPSVAYPRRSNEGHHHHHH", "soluble on expression in E. coli": "not soluble"}, {"sequence": "MGSSHHHHHHSSGLVPRGSKKKKEMPFPNKKIELGDKLSESIRSFSTITDTEIIIGICRKNIPGWKEINESYIEVKQIFSGLTNQLFVVSIVNESMSLSLKHPRILFRIYGKHVGKFYDSKVELDVFRYLSNINIAPNIIADFPEGRIEEFIDGEPLTTKQLQLTHICVEVAKNMGSLHIINSKRADFPSRFDKEPILFKRIYLWREEAKIQVSKNNFQIDKELYSKILEEIDQLEELIMGGEKFSMERALELKLYSPAFSLVFAHNDLQENNLLQTQNNIRMIDYEYSAINFAGADIANYFCEYIYDYCSEKQPYFKFKYEDYPCEELRKLFISVYLSQTLQEQVMPSQQIVHIMTKAVEVFTLISHITWGLWSIARTPGYQPNSVEFDFTEYANTRFTHYLQKKKELIDQGILPLNSWLFNL", "soluble on expression in E. coli": "soluble"}, {"sequence": "MGSDKIHHHHHHMSLVINQLSKRIDHHQTLDGISFEIGLGQIVGVVGRNGVGKTTLFRTINGQYLTDHGQVLVDGQEVVDQPEMRTQLCFIDPLANFFKGATIAQIQWYYQAAYPDFDNAKFAQLLDRYHLTSKQKLRHFSKGMFGLFTIILSVATQAPYLFLDEPLDGLDVLIRKNILGILIDEVATGNRSIVIASHNLAELEGVIDRALMLKHGRIVNDYQLEAMRRSARKVQLVYRDKQIPAVVKQLGHIVHVSGRVIVVVFEDYNAEVQAQLATTNPVFQEDLPLSLADLFMANLTDEADFELLS", "soluble on expression in E. coli": "not soluble"}, {"sequence": "MGSDKIHHHHHHNEMTEMNPDTNRTIGLDVYTEVQTRGTETTTSTLKANAGFGIFAYQTSSAGWNSEKGNTTPNFMYNEHATWTSDSWGYTNLRFWPIDDKKITFFAYAPYESKPEVGTDQKITLSGQNAKGAPTITFEVKTSNNWKDMIDLVTDCHTAIQDQTNESNKGTVQFKFSHVLTQIANIKVKPDVNLGTDTKIFVTGLKLDPGSTTLYNKAVYKFDNDTWEAISPDASYFSTEQDLSDFLNKTTTDQWGYNKSSINVSDDQNATALFSDTEALYFIPVNNKNGTTNAGDLKLKINYDIVTKVTDTSNLTSTITNKEVSLPKNTFKKGTKHTYVLTIKMNAIKITVEDNMEGWTDDSDSDINVEK", "soluble on expression in E. coli": "not soluble"}, {"sequence": "MDDSQESSFSVSKYETNDDGSMGQFISINECEREIQMLERDIRQQKESSANAKTAITFDQLRKIHTLSTLLGPHKELFFDRICRAADIQRASLKNRLKSNINKFEPSTPLSFQPGFDSQSSLSTTSESQNFVVTPTTLSSLLNNHTRKNHIEMLAPLASEEELMRFPAERQFDLMQIGFSYDEVKQLLEMFEKFKNDVQEINRLHTLTQILNQFCNYISMYAPPNLKMISSAFNLLELGNSAHEVKRVLLKARRREESEESDVSFSKKPRPSSRSPASPNRDDLLLGLDRSPPSDDGTQKV", "soluble on expression in E. coli": "not soluble"}, {"sequence": "MGSDKIHHHHHHMKAPLVSIIIPVWNLWELTCACLDSIRAHTPGNAVEVIVVDNGSDDTTATALAPTGEGLFGARFRRIRLETNRGFAVACNLGAAKAQGTYLLLLNNDTVLSPGWLPPLLREFDDEPRTGAAGPLLVYPDSGRVQHCGIAFAPTLQTEHLYANFPATHPAVRARRTLQAITGAAMLLPTALFRQCGGFHEGYKNGCEDLELCCRIREQGLRLAVVPESLVAHHESRTPGRKEHDAANATLLNRRCSGCFGPDLHRHALRDGFAIALTPWLDTYLTLPPGREAALTREHITDFDPGRCWETLQGEPLWHGGYEMLCSILDEAGRHAESAGVRLLQAGFFPTLPGFRQLARSAALSGNDELARQAAEKMQHIGGILEDPEPLVTRARGLVRWARRAGEPAVEALYTGWLTDIGLSADD", "soluble on expression in E. coli": "not soluble"}, {"sequence": "MKKAADRPTSAVNGRHESPATSTNNTQNSGTPSLNGQDPLRSTSSSPLFGTEPLPEDDHASCPYCQQDFRKPRVLDCLHSMCEDCIIAQLDGHLQAKSAAIEEKKRATAAMLDCELETPKVKERPTPPGVIRCPICSQESHVGNDVRYVHAMLLDFVRLAEMKEVEVEKMVAHHRKPCTACKSEQEAIAFCDQCSSDLCENCTTAHTVMNLFQGHTVTTFADLRQPGAHPELRQVMCSTHNQHMRYLCAACETAACKQCLEVDHLNHKIIDINELVINAIREDVTSTVDRVEKKYNNSVADMNSLPDKSQQLNEQYEIAKYRVDKHYEELRNSIEEAYQKSVNDLEEARIRQESNIDEMYRKSQVNEARVHDAINFTRRLLTKGNGLELVVSRKKVIQQFGNLSHAIPSHGHQVELEFYTPSKKQIDHFVHQLTGTVIGRVIQPTVKDVGNATAASTDRSERGGSQPGGGRSSSAANPSQQDEWGRPVYSQNPQLGAIGGERKKNTQNGTNGTRGDSNAFGGWPPSSHPPESTTPPPVTGPQTMITGAPTQTAAPIVSQQQLSNLPNAAAMAAAAAGMRPDLVALAANHMDLAALTNGSTNGSQTPLPESIFPAMWNARQGLPAVATPTTTGLSTNASAAYMQQKLAAAQLQALASHRLNPQIMSMNNLRTNQTIQEFLAMNAMGNLSLNPQLTSAAAAALAATAAANSAVTTTASDVGQSQNSANAQRVSDLKVHSVFGTSQQGSTIRELHCPSGFCLSDTDDILIADTNNHRVVVCGPPHPWKIGRPGTDDGQLCFPRKVIALRGEAVRYVVLDKGGDGKTRAQIFEARGEFVKRLNMMALVPRGGIEVSAAAATPNGQLLLVDTAGFVYSIDVDAPRVTFWFDASTQLGEASDVAMFDNLIYITDFKHHCVQVYTSEGKFIRKMGEPSQTPYPIGIDVSKAGEVLVADTHGNHLHVVVFSPEGQHIHSFTHNEFRLSRCVGLRIAKSGHIVTLCKHNHTLFVFKPLILPNGLPVPTPVPHATSLISKFQ", "soluble on expression in E. coli": "not soluble"}, {"sequence": "MGSDKIHHHHHHMSVVDPSLIERIIRDDVRAMGAYHVPDSHGLVKLDAMENPYRLPPALRSELAARLGEVALNRYPVPSSEALRAKLKEVMQVPAGMEVLLGNGSDEIISMLALAAARPGAKVMAPVPGFVMYAMSAQFAGLEFVGVPLRADFTLDRGAMLAAMAEHQPAIVYLAYPNNPTGNLFDAADMEAIVRAAQGSVCRSLVVVDEAYQPFAQESWMSRLTDFGNLLVMRTVSKLGLAGIRLGYVAGDPQWLEQLDKVRPPYNVNVLTEATALFALEHVAVLDEQAAQLRAERSRVAEGMAAHGGVTVFPSAANFLLARVPDAAQTFDRLLARKVLIKNVSKMHPLLANCLRVTVSTPEENAQFLEAFAASLQD", "soluble on expression in E. coli": "not soluble"}, {"sequence": "MGSDKIHHHHHHMIIESRIEKGKPVVGMETTVFVHGLPRKEAIELFRRAKEISREKGFQLAVIGILKGKIVAGMSEEELEAMMREGADKVGTREIPIVVAEGKNAATTVSATIFLSRRIGIEVVVTGGTGGVHPGRVDVSQDLTEMSSSRAVLVSSGIKSILDVEATFEMLETLEIPLVGFRTNEFPLFFSRKSGRRVPRIENVEEVLKIYESMKEMELEKTLMVLNPVPEEYEIPHDEIERLLEKIELEVEGKEVTPFLLKKLVEMTNGRTLKANLALLEENVKLAGEIAVKLKRS", "soluble on expression in E. coli": "not soluble"}]}]}
